The values that follow come from PMC2917807 (Journal of molecular biology, 2010).

Assay [1] concerns the target LexA-SoxS bait fusion protein (pGILDA-SoxS), wild type SoxS (Escherichia coli) (UniProt P0A9E2). In words: two-hybrid.
Assay [2] concerns the target T1, LexA-SoxS bait fusion protein (pGILDA-SoxS), wild type SoxS (Escherichia coli, UniProt P0A9E2 1-107).
T1 sequence (looked up): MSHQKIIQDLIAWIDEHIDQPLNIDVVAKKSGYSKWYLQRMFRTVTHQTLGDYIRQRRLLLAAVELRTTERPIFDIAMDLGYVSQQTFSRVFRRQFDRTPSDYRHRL
In words: two-hybrid.

For the molecule “B42AD-αCTD prey fusion protein (pB42AD-αCTD) (domain or fragment)”, in assay [1], the induction ratio of reporter β-galactosidase was found to be 25.

B1: B42AD-σ^70 R4 prey fusion protein (pB42AD-σ^70 R4), wild type region 4 of σ^70 (domain or fragment, Escherichia coli, UniProt P00579 530-613, looked up)
chain: LPLDSATTESLRAATHDVLAGLTAREAKVLRMRFGIDMNTDYTLEEVGKQFDVTRERIRQIEAKALRKLRHPSRSEVLRSFLDD
With B1, the “induction ratio of reporter β-galactosidase” value in assay [2] is 14.
